Data as given in paper PMC5868845.

Molecular target: 4F2hc (UniProt P08195)
Assay: co-IP from transfected 293FT, western blot
Details: reference: Flag-NT wild type

Girdin NT domain, 1-256 (from UniProt Q3V6T2) Flag-NT S233A
binding against the reference (sites S233): lost

Girdin NT domain, 1-256 (from UniProt Q3V6T2) Flag-NT S237A
binding against the reference (sites S237): lost
